Assay results: the supplement of paper PMC12042874
± gives the uncertainty stated by the source.

Assay: amyloid nucleation score (Sup35N fusion, yeast selection) (log enrichment); library NNK1; higher = more nucleation; inactive = no reads after selection
Outline: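 The nucleation score is the log enrichment of output over input reads, calculated with DiMSum and centred on the mode score of non-aggregating sequences. Sequences with under 100 input reads were excluded. Reads came from Illumina sequencing of plasmid inserts from psi-negative yeast expressing Sup35N fused to peptides of 20 random codons, induced 24 hours with 100 μM copper sulfate and grown 7 days at 30°C without adenine and uracil.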

Substance	amyloid nucleation score
YLTWQKTWRVRVSVLCTGTD	0.638 ± 0.58
HAEWGGDAKPTRYRRRNEAG	inactive
WKASFIRFWFVAIMFMYNLC	-0.1 ± 0.42
HDQSYSHSGSNGFRQKNEAN	1.32 ± 0.5
RWSVSINWTRSEEHDFRNCV	1.37 ± 0.43
WTRKS	-0.067 ± 0.35
KNVARVHMQCLPAYVLGRNH	0.018 ± 0.66
KNFWKGVLYSIRCHNQWNVG	5.41 ± 0.092
STIGNVY	-0.586 ± 0.51
AMCCYGYVCCFYGSEVG	5.51 ± 0.078
KTSNKWMIKRNYRAYGHCSV	-0.357 ± 0.37
CRMRMLRKYVFLD	-0.427 ± 0.61
GIMSRDGKICMVSV	-0.091 ± 0.81
AGFSSDFASVPHPLGYGWLT	-0.662 ± 1.2
IHHKD	-0.616 ± 0.24
VIHLSVSWLGMLSGWANLFV	-0.529 ± 0.94
HPLAAVSKLCRRSRLGLSSR	-0.124 ± 0.35
DVRLRRYEGGQSSVTSHHDN	0.028 ± 0.53
WPNNRVQFCSCGSRFSCLGS	0.933 ± 0.85
VDFLSTNFWSLSVPVAFLGV	-0.31 ± 0.54
RILVVNWVYPSTMNGVSQWS	2.63 ± 0.2
ILIDYRGSEPG	0.224 ± 1.4
VLYAP	-0.33 ± 1.7
IICICLVIISFRFCFSIKFM	-2.57 ± 2.7
SGCWT	0.331 ± 0.8

Substance	amyloid nucleation score
VAAACFFNRCWEHTYVMIVK	3.1 ± 0.17
GCGGTGAFTVQGKRQFIAGR	-0.031 ± 0.27
ADRRLW	-0.04 ± 0.32
ACFPLQVKDCYKCLGHLRAV	0.315 ± 0.29
GSSFI	0.127 ± 0.57
EDCIWYVVGH	-2.18 ± 2.4
GIKAIKCDEPSCAVLGLNSS	-0.536 ± 0.5
SGVICWYQKLAGINDALRWA	1.21 ± 0.25
YQLWPQASMKMCD	0.258 ± 0.4
IVVFQ	-0.887 ± 1.8
RSVNSETQKFMRWFMRVWTP	-0.332 ± 0.33
ILVHSMGFLGKRYCGCMWGD	3.41 ± 0.13
PSSTNMGRDGWLDCQVHTFE	-0.009 ± 0.28
ANCFPLCRKNLGRSGVNNVR	-0.452 ± 0.74
TVSKNMYR	-0.259 ± 0.5
YSYVVCYNFYKRV	3.86 ± 0.14
FKSGRDSGMRG	-1.57 ± 1.1
CKRRIQMKLLS	-0.244 ± 0.37
NNNAMQVDVILMRFWVKVAV	0.492 ± 0.89
DCNPSWIPFLVCHRIYACWR	1.41 ± 0.64
TADFLERRDMKYLHM	-0.361 ± 1.7
NLVFW	0.562 ± 0.69
YTASMTIFLDLLP	2.07 ± 0.15
SGFENRDSIPIAPCIRLLLV	-0.056 ± 0.59
DTVVGSAFCQGMYLSESVML	1.56 ± 0.76

Substance	amyloid nucleation score
IFMRSAERGMRVLLEDDCRT	0.256 ± 0.61
CSREYDVVGLA	0.401 ± 0.28
TVFRTSFLWHGMGRGLVR	1.03 ± 0.59
VLCVSRRSAIYTWGSSLYCD	-0.691 ± 1.4
SLMWLWIFSRAGSLSLLLIA	0.718 ± 1.2
NQYLPS	-0.126 ± 1.2
AVMCYDNTSSNVSFN	-0.279 ± 0.28
PVHNRVINRILGSSLEVLEN	-0.123 ± 0.31
RGIKCPVSCKIASSRREWWV	0.789 ± 0.37
SGNGG	-0.158 ± 0.34
HNTSLYVTLNSSTR	6.2 ± 0.09
GAFCWRLVGEGLFVALDVCE	0.458 ± 0.87
CDFAYRDWCHKMRYRYTRPC	0.38 ± 0.39
YECGFLLSLVRATKLLNSAC	0.146 ± 0.28
VCVSIGWFCCSGCCLAQRLW	7.2 ± 0.065
NGKWYLLVRGFLAWNKQRCP	-1.03 ± 2.7
NFNFFRRCLGSPYNRPEWID	-0.066 ± 0.42
LSFSMGYNYELATTKWSVVF	1.3 ± 0.41
MSGAESYLHLDLCRVTGIAS	-0.24 ± 0.35
TVLKVSTEYFFLMKESGVVC	0.593 ± 0.26
AMWSSLIDMCNNG	0.35 ± 0.25
GSDTNSNRLIMLMFGTVFCA	2.84 ± 0.16
MGLPVLVINNHTAKNGVTRA	0.711 ± 0.73
EQTCVVGPQE	0.397 ± 1
RKHVVPGKIF	0.006 ± 0.51

Substance	amyloid nucleation score
QSGVNNTVLVCIVQSFSSLM	5.5 ± 0.082
ALLSSYLWK	0.996 ± 0.45
FHICDNRLDCSLIVVANSWK	2.65 ± 0.18
IWGDKIHGFHGVIMMQSGMV	-0.762 ± 0.71
GSDGVCFNKNLNSWIYMLST	0.805 ± 0.64
CQIFGNFWWKCIVGCRQIRF	inactive
NTSWGYFR	-0.426 ± 0.52
RHSKMVQLRLSTYGVET	inactive
RRLQSNLSSCEASNPDTLRC	0.774 ± 0.36
CILLYMQKSIGFGNSVKFAF	inactive
SNGMRRLTKVDEHSL	0.933 ± 0.54
TKIVFIVL	6.02 ± 0.084
SCFFKKMDMDT	0.436 ± 0.69
FDRRLCFVG	0.024 ± 0.52
RSSSHYRSDERPIDFVNEQE	-1.16 ± 0.77
PSTREYFNCTKMAYYCIRRP	-0.005 ± 1.7
TGKSRDNRNVDGNL	0.063 ± 0.38
HSLLWPLGFAQ	0.184 ± 0.67
VCTYGFGC	inactive
PFLNVEHFVMVDRFIVPDI	0.559 ± 0.79
ERYPCDALDVDLRLTLCRKG	0.222 ± 0.48
ALCFCWNWLLCTDKGL	6.056 ± 0.048
GNSMSHASTVKVFLAQLGGD	-1.04 ± 2.1
PYYRLHANLPDEKRSTAILI	-0.378 ± 0.55
VRKSSVASLECQNA	0.335 ± 0.28

Substance	amyloid nucleation score
NMKRQRAHPMFS	-0.707 ± 0.45
HIRLAQ	0.157 ± 0.76
SQRNLHTTYTYVAYRDYAER	0.957 ± 0.29
LDLVTGL	1.1 ± 0.66
PLRNRNCVPYPHDCLSTSLI	-0.816 ± 1.3
LSIRNTSTSRITTLFLGL	1.88 ± 0.4
TCVDAVVLM	0.063 ± 0.62
NMGSFELWYYGLKASVGFAN	0.513 ± 0.4
GGKESLFRCFADRSCFMYI	-0.724 ± 2.4
VTCRLPETMPGGTWLNMIIR	inactive
DVAYRGSGYGFSYFYFGMFS	0.547 ± 0.5
HSLGTCRFFVIAHSLK	0.583 ± 0.69
KSSWSSAS	-0.076 ± 0.3
YIKMIR	-0.759 ± 0.97
STMVCHDFLAMMGSCMGLCL	-0.406 ± 0.96
FSRKINVYG	-0.396 ± 0.66
TRFLLLSLRDGSEQV	0.577 ± 0.73
ILAVLVTYIANTACSWYYVF	0.052 ± 0.64
FSVRNSSVILEHGVWLNCQG	0.03 ± 0.97
KMRKIDAR	2.63 ± 0.11
NFIVVMCTIMNLCYKAQPNE	inactive
FVVSDRGWTQALRHYPDTRM	-0.25 ± 0.34
RVTYETNGLWGKNVRYDIVN	0.305 ± 0.34
YLCKVRACTRKSQSLLCGAS	0.678 ± 0.65
NIGMVRFFLGAN	-0.71 ± 0.61

Substance	amyloid nucleation score
MRSGTVYMVYLVHLKSFKWL	-0.265 ± 0.68
MLSKIFAHYSWSQAVTRAWG	1.75 ± 0.58
FPEHVPVSVYVCYRGYGRRV	-0.589 ± 0.61
TRYSTSISGC	0.332 ± 0.69
FWHGSCSLDNDFHS	-0.442 ± 0.51
FITRRSLGCRFPKPKSLRIN	-0.012 ± 0.4
KGRVKGSVASSLS	-0.309 ± 0.57
YLGQWFNYTCYQWVMV	1.37 ± 0.21
SSFDMRDILYLSSNILRSRM	-0.505 ± 0.35
TRVYIYRTGIWFYLTSNSFT	0.577 ± 0.43
QYVMSLITVQQYRSEFSAVM	0.263 ± 0.25
VLAPF	inactive
YNIALCINSQVRESRRPVGV	5.24 ± 0.072
GTFSGRKEL	0.463 ± 0.3
LNYDLWTKILNDVVVVCNRF	-0.185 ± 0.4
CFDNIGGCFNPHDY	-0.184 ± 0.43
IVPAEAVLRRLQRFLRWLVV	-0.245 ± 1.1
FVMHSSSM	-0.34 ± 0.53
DSPGSSGCKGATVHMSFTWG	0.731 ± 0.61
LASGRRPSQPGVRRVAKTTG	0.392 ± 0.34
MITSDKIGSQWLQCRLKVAC	-0.43 ± 0.53
RFWVYGKGILMVLGAFFCL	0.07 ± 0.56
YFPIGYFVRKEDYGTCENDD	0.386 ± 0.31
FNWSRNHGF	0.013 ± 0.76
FINAYRMFWIGYCNLFSLFL	1.38 ± 0.52

Substance	amyloid nucleation score
NRPHFKGNQCPQDIS	-0.217 ± 0.22
FASKRWLWSVEQLSRLSNGT	-0.087 ± 0.21
GGFFYMWRYRLCRLGKFGAP	-0.76 ± 0.6
FHYYMSFSGDGI	0.724 ± 0.39
YVYWR	-1.82 ± 2.7
ELFASTCGFYALHRLGSRPG	3.04 ± 0.092
YYRGCTWLAYPEERTALPRM	0.208 ± 0.27
LFCHPSFYINGMWSLGGSGG	-0.578 ± 0.66
MRLIVNSFTVGYEPRISWYV	1.22 ± 0.24
GEIITWLSGIPLDTVCILRM	-0.229 ± 0.25
EWLDALKANTIFYWKYGSMI	0.496 ± 0.63
MIAFYIVLLPVIRGYRSGCK	inactive
IEWFVLGDYMCTAQSVCGLV	-1.26 ± 1.3
HCRPFFSVEINKCLSC	5.15 ± 0.1
HYMRWIGLRTDTKGPRSGSG	-0.578 ± 0.86
KMIPMTYASKVLKCRLFEVK	1.14 ± 0.76
HHLDPGQTHEIVSCSTWFTF	-0.397 ± 0.29
SSMSPTVYVVRR	0.163 ± 0.9
YCLFNLESG	0.315 ± 0.53
CYASKMFWVVF	2.06 ± 0.27
FQVCLVLSAHVRPQRYFKSW	-0.429 ± 0.8
DRYVYEFSYVLFWLFILVM	0.128 ± 0.44
SSFIAYASSDTWFTVKA	1.09 ± 0.36
VTNTSLFSIAKSLGHHHEGR	0.272 ± 0.4
